We go through 19 molecules from patent US10172953B2, “XTEN conjugate compositions and methods of making same” (Amunix Operating Inc., priority 2012, dated 2019).

Like-named read-outs stand apart in the source and are kept apart here. Numbered stars: 1 amine (or outer) side, 2 acyl side, 3 side chain; on linkers, the order of the positions; unused ones are H or OH. Square brackets hold non-standard residues; d marks the D form. Side chains are listed from the residue outwards. Ends that are not written are not given here. Peptide text beside a SMILES is read from it. * marks the point of attachment. Ethylenediamine = C(CN[*:2])N[*:1]; Hyp = O=C(O)[C@@H]1C[C@@H](O)CN1; Phg = N[C@H](C(=O)O)c1ccccc1; CO = O=C([*:1])[*:2]; Bn = c1ccc(C*)cc1

For data set [1] the following is noted: cited from earlier work.
Data set [2] is described as follows: Analytical size exclusion chromatography (apparent MW, hydrodynamic radius). The settings on record: for Apparent MW / RH (hydrodynamic radius): SEC; for Apparent Molecular Weight Factor: ratio of apparent molecular weight to calculated molecular weight. The format is physicochemical. On the procedure:
Size exclusion chromatography analyses were performed on fusion proteins containing various therapeutic proteins and unstructured recombinant proteins of increasing length. […] Chromatogram profiles were monitored using OD214 nm and OD280 nm.

For data set [3] the following is noted: cited from earlier work. This is another data set of the same source.
Data set [4] has as its target human recombinant GLP-2 glucagon family receptor (human) (UniProt O95838). Nature of the data set: cell-based or functional assay.
Sequence of UniProt O95838 (O95838 whole entry): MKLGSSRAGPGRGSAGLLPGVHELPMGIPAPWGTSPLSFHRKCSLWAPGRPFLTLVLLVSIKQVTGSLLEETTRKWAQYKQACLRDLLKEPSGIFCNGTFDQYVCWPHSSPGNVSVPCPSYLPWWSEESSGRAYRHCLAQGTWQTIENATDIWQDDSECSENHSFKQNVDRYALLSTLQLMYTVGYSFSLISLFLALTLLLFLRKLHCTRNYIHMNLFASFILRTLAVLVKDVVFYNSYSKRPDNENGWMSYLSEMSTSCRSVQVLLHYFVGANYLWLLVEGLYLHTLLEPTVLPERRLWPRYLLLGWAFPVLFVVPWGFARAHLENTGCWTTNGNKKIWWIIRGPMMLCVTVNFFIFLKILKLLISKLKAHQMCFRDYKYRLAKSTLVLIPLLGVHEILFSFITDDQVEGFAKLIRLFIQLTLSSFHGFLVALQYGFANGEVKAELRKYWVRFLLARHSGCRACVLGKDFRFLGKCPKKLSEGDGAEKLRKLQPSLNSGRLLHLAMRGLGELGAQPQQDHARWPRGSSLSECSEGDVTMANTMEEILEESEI
Setting [5] is: unmodified peptide/protein, humans (oxyntomodulin: in human plasma; ghrelin: terminal half-life).
Where [6] appears, read: unmodified peptide/protein, humans/patients.
The mark [7] stands for this setting: unmodified peptide (GLP-1: biological half-life).

The half-life is the time in which the quantity being followed falls by half. For “ghrelin: human hormone GSSFLSPEHQRVQQRKESKKPPAKLQPR (SEQ ID NO: 557) (listed as Homo sapiens)”, in data set [1] (human, in vivo), the half-life is 10 to 30 min.

relaxin: the half-life entry in data set [1] (setting [5]) is “less than 10 min”.

In the case of AC616: fusion: XTEN AE864, GLP2-2G, in data set [2], the “Apparent MW” value is on record as 1427 kDa, the “RH (hydrodynamic radius)” value came out at 10 nm and the “Apparent Molecular Weight Factor” value is on record as 17.2.

“C-peptide: human pancreatic protein, middle segment of proinsulin (SEQ ID NO: 556) (EAEDLQVGQVELGGGPGAGSLQPLALEGSLQ; listed as Homo sapiens)”: in data set [1] (unmodified peptide, humans), the half-life result was “about 30 minutes”.

Consider “oxyntomodulin: 37 amino acid peptide (SEQ ID NO: 552)”, for which the half-life in data set [1] (human, in vivo) is listed as roughly 12 min.

“metreleptin: the commercially available form of leptin [reference compound]”: the half-life in data set [1] (setting [5]) is 8 to 30 min.

As for “IL-7: human interleukin encoded by the IL7 gene (SEQ ID NO: 562)”, the half-life entry in data set [1] (setting [6]) was “approximately 10 h”.

For the molecule “α-MSH: 13-amino acid peptide N-Ac-SYSMGFRWGLPV (SEQ ID NO: 564) (not fully specified; printed as N-Ac-SYSMGFRWGLPV; ends and bridges not checked)”, the half-life entry in data set [3] (unmodified form, in words) is reported as “mere seconds”.

For the molecule enfuvirtide, the half-life in data set [1] (setting [6]) is 228 min.

As to “POT4: synthetic cyclic peptide H-Ile-[Cys-Val-Val-Gln-Asp-Trp-Gly-His-His-Arg-Cys]-Thr-NH2, C3 complement inhibitor [reference compound]”, the “circulating in vivo half-life” value in data set [3] (in vivo) was 480 min.

“GLP-(7-37)OH: form of human glucagon like peptide-1 (HAEGTFTSDVSSTLEGQAALEFIAWLVKGRG; listed as Homo sapiens)”: the half-life in data set [3] (setting [7]) is 3 to 5 min.

With “GHRH: 44-amino acid peptide hormone (SEQ ID NO: 542)”, the half-life entry in data set [3] (setting [7]) is recorded as “less than 15 minutes”.

As to CNP-22, the half-life in data set [3] (unmodified peptide/protein (Fxa: plasma half-life)) was 2.6 min.

In the case of `NCCCC[C@@H]1NC(=O)[C@@H](Cc2c[nH]c3ccccc23)NC(=O)[C@H](c2ccccc2)NC(=O)[C@@H]2C[C@@H](OC(=O)NCCN)CN2C(=O)[C@H](Cc2ccccc2)NC(=O)[C@H](Cc2ccc(OCc3ccccc3)cc2)NC1=O` [Pasireotide, [(3S,6S,9S,12R,15S,18S,20R)-9-(4-aminobutyl)-3-benzyl-12-(1H-indol-3-ylmethyl)-2,5,8,11,14,17-hexaoxo-15-phenyl-6-[(4-phenylmethoxyphenyl)methyl]-1,4,7,10,13,16-hexazabicyclo[16.3.0]henicosan-20-yl] N-(2-aminoethyl)carbamate, reference compound] (cyclo([Hyp]([CO-Ethylenediamine])[Phg][dW]KY(Bn)F)), in data set [1] (setting [6]), the half-life is 720 to 1020 min.

B1: AC404: fusion: XTEN AE864, FVII (protein)
chain: AVFVTQEEAHGVLHRRRRANAFLEELRPGSLERECKEEQCSFEEAREIFKDAERTKLFWISYSDGDQCASSPCQNGGSCKDQLQSYICFCLPAFEGRNCETHKDDQLICVNENGGCEQYCSDHTGTKRSCRCHEGYSLLADGVSCTPTVEYPCGKIPILEKRNASKPQGRIVGGKVCPKGECPWQVLLLVNGAQLCGGTLINTIWVVSAAHCFDKIKNWRNLIAVLGEHDLSEHDGDEQSRRVAQVIIPSTYVPGTTNHDIALLRLHQPVVLTDHVVPLCLPERTFSERTLAFVRFSLVSGWGQLLDRGATALELMVLNVPRLMTQDCLQQSRKVGDSPNITEYMFCAGYSDGSKDSCKGDSGGPHATHYRGTWYLTGIVSWGQGCATVGHFGVYTRVSQYIEWLQKLMRSEPRPGVLLRAPFPGSPGSPAGSPTSTEEGTSESATPESGPGTSTEPSEGSAPGSPAGSPTSTEEGTSTEPSEGSAPGTSTEPSEGSAPGTSESATPESGPGSEPATSGSETPGSEPATSGSETPGSPAGSPTSTEEGTSESATPESGPGTSTEPSEGSAPGTSTEPSEGSAPGSPAGSPTSTEEGTSTEPSEGSAPGTSTEPSEGSAPGTSESATPESGPGTSTEPSEGSAPGTSESATPESGPGSEPATSGSETPGTSTEPSEGSAPGTSTEPSEGSAPGTSESATPESGPGTSESATPESGPGSPAGSPTSTEEGTSESATPESGPGSEPATSGSETPGTSESATPESGPGTSTEPSEGSAPGTSTEPSEGSAPGTSTEPSEGSAPGTSTEPSEGSAPGTSTEPSEGSAPGTSTEPSEGSAPGSPAGSPTSTEEGTSTEPSEGSAPGTSESATPESGPGSEPATSGSETPGTSESATPESGPGSEPATSGSETPGTSESATPESGPGTSTEPSEGSAPGTSESATPESGPGSPAGSPTSTEEGSPAGSPTSTEEGSPAGSPTSTEEGTSESATPESGPGTSTEPSEGSAPGTSESATPESGPGSEPATSGSETPGTSESATPESGPGSEPATSGSETPGTSESATPESGPGTSTEPSEGSAPGSPAGSPTSTEEGTSESATPESGPGSEPATSGSETPGTSESATPESGPGSPAGSPTSTEEGSPAGSPTSTEEGTSTEPSEGSAPGTSESATPESGPGTSESATPESGPGTSESATPESGPGSEPATSGSETPGSEPATSGSETPGSPAGSPTSTEEGTSTEPSEGSAPGTSTEPSEGSAPGSEPATSGSETPGTSESATPESGPGTSTEPSEGSAPGSSS
In the case of B1, in data set [2], the “Apparent MW” value is 1900 kDa, the “RH (hydrodynamic radius)” value is on record as 10.1 nm and the “Apparent Molecular Weight Factor” value is 14.7.

B2: AC398: fusion: XTEN AE288, FVII (protein)
chain: AVFVTQEEAHGVLHRRRRANAFLEELRPGSLERECKEEQCSFEEAREIFKDAERTKLFWISYSDGDQCASSPCQNGGSCKDQLQSYICFCLPAFEGRNCETHKDDQLICVNENGGCEQYCSDHTGTKRSCRCHEGYSLLADGVSCTPTVEYPCGKIPILEKRNASKPQGRIVGGKVCPKGECPWQVLLLVNGAQLCGGTLINTIWVVSAAHCFDKIKNWRNLIAVLGEHDLSEHDGDEQSRRVAQVIIPSTYVPGTTNHDIALLRLHQPVVLTDHVVPLCLPERTFSERTLAFVRFSLVSGWGQLLDRGATALELMVLNVPRLMTQDCLQQSRKVGDSPNITEYMFCAGYSDGSKDSCKGDSGGPHATHYRGTWYLTGIVSWGQGCATVGHFGVYTRVSQYIEWLQKLMRSEPRPGVLLRAPFPGSPGTSESATPESGPGSEPATSGSETPGTSESATPESGPGSEPATSGSETPGTSESATPESGPGTSTEPSEGSAPGSPAGSPTSTEEGTSESATPESGPGSEPATSGSETPGTSESATPESGPGSPAGSPTSTEEGSPAGSPTSTEEGTSTEPSEGSAPGTSESATPESGPGTSESATPESGPGTSESATPESGPGSEPATSGSETPGSEPATSGSETPGSPAGSPTSTEEGTSTEPSEGSAPGTSTEPSEGSAPGSEPATSGSETPGTSESATPESGPGTSTEPSEGSAPGSSS
For B2, in data set [2], the “Apparent MW” value turned out to be 650 kDa, the “RH (hydrodynamic radius)” value is listed as 8.2 nm and the “Apparent Molecular Weight Factor” value is reported as 8.5.

B3: Endostatin: 20-kDa C-terminal fragment derived from type XVIII collagen (SEQ ID NO: 565) (protein, listed as Homo sapiens)
chain: HSHRDFQPVLHLVALNSPLSGGMRGIRGADFQCFQQARAVGLAGTFRAFLSSRLQDLYSIVRRADRAAVPIVNLKDELLFPSWEALFSGSEGPLKPGARIFSFDGKDVLRHPTWPQKSVWHGSDPNGRRLTESYCETWRTEAPSATGQASSLLGGRLLGQSAASCHHAYIVLCIENSFMTASK
In the case of B3, in data set [1] (setting [6]), the half-life is 780 min.

B4: conjugate GLP2-2G-XTEN (protein, part only; not given: added cysteine position, not shown: small tags and cut ends)
peptide, part: HGDGSFSDEMNTILDNLAARDFINWLIQTKITD
chain: GSPGSPAGSPTSTEEGTSESATPESGPGTSTEPSEGSAPGSPAGSPTSTEEGTSTEPSEGSAPGTSTEPSEGSAPGTSESATPESGPGSEPATSGSETPGSEPATSGSETPGSPAGSPTSTEEGTSESATPESGPGTSTEPSEGSAPGTSTEPSEGSAPGSPAGSPTSTEEGTSTEPSEGSAPGTSTEPSEGSAPGTSESATPESGPGTSTEPSEGSAPGTSESATPESGPGSEPATSGSETPGTSTEPSEGSAPGTSTEPSEGSAPGTSESATPESGPGTSESATPESGPGSPAGSPTSTEEGTSESATPESGPGSEPATSGSETPGTSESATPESGPGTSTEPSEGSAPGTSTEPSEGSAPGTSTEPSEGSAPGTSTEPSEGSAPGTSTEPSEGSAPGTSTEPSEGSAPGSPAGSPTSTEEGTSTEPSEGSAPGTSESATPESGPGSEPATSGSETPGTSESATPESGPGSEPATSGSETPGTSESATPESGPGTSTEPSEGSAPGTSESATPESGPGSPAGSPTSTEEGSPAGSPTSTEEGSPAGSPTSTEEGTSESATPESGPGTSTEPSEGSAPGTSESATPESGPGSEPATSGSETPGTSESATPESGPGSEPATSGSETPGTSESATPESGPGTSTEPSEGSAPGSPAGSPTSTEEGTSESATPESGPGSEPATSGSETPGTSESATPESGPGSPAGSPTSTEEGSPAGSPTSTEEGTSTEPSEGSAPGTSESATPESGPGTSESATPESGPGTSESATPESGPGSEPATSGSETPGSEPATSGSETPGSPAGSPTSTEEGTSTEPSEGSAPGTSTEPSEGSAPGSEPATSGSETPGTSESATPESGPGTSTEPSEGSAPGR
modifications: N-terminal alpha-amino group modified with sulfo-SMCC and linked to GLP2-Cys; added cysteine thiol linked through the sulfo-SMCC cross-linker (maleimide) to the N-terminal alpha-amino group of the XTEN chain
With B4, in data set [4], the GPCR Ca2+ flux mobilization, EC50 worked out at 529 nM.

B5: Glucagon-Y288: fusion protein of glucagon plus XTEN Y288 (protein)
chain: HSQGTFTSDYSKYLDSRRAQDFVQWLMNTGEGSGEGSEGEGSEGSGEGEGSEGSGEGEGGSEGSEGEGGSEGSEGEGGSEGSEGEGSGEGSEGEGGSEGSEGEGSGEGSEGEGSEGGSEGEGGSEGSEGEGSGEGSEGEGGEGGSEGEGSEGSGEGEGSGEGSEGEGSEGSGEGEGSGEGSEGEGSEGSGEGEGSEGSGEGEGGSEGSEGEGSEGSGEGEGGEGSGEGEGSGEGSEGEGGGEGSEGEGSGEGGEGEGSEGGSEGEGGSEGGEGEGSEGSGEGEGSEGGSEGEGSEGGSEGEGSEGSGEGEGSEGSGE
Consider B5, for which, in data set [2], the “Apparent MW” value was determined as 370 kDa, the “RH (hydrodynamic radius)” value was determined as 7.0 nm and the “Apparent Molecular Weight Factor” value is given as 12.9.
